Measured values reported in US20160230205A1 (R P SCHERER TECHNOLOGIES, published 2016).

Experiments:
[1] = target: T1, 14 amino acid FGE substrate peptide ALCTPSRGSLFTGR
T1 chain: ALCTPSRGSLFTGR

[2] = target: T2, Streptomyces coelicolor formylglycine-generating enzyme (Sc-FGE), wild-type, with N-terminal hexahistidine … (Streptomyces coelicolor, UniProt Q9F3C7 1-314); assay: Michaelis-Menten kinetics from discontinuous RP-HPLC activity assay
T2 construct: Made in E. coli BL21(DE3); also called S. coelicolor FGE; not shown: N-terminal hexahistidine tag and TEV protease cleavage site from the pET151-D/TOPO vector
T2 sequence (looked up): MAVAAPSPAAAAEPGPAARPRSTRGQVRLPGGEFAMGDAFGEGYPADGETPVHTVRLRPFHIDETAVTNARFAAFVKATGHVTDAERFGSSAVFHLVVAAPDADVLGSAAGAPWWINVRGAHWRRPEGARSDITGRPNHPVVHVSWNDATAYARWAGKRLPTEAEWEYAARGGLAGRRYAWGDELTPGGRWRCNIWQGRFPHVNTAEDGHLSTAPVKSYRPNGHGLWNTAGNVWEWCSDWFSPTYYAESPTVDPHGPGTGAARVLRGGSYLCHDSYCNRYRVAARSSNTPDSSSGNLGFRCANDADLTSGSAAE

B1: Streptomyces coelicolor formylglycine-generating enzyme (Sc-FGE), wild-type, with N-terminal hexahistidine tag and TEV protease cleavage site, activated with … (protein)
chain: T2 sequence (looked up)
For B1, the KM [1] was “KM=96 µM”.

B2: 14 amino acid FGE substrate peptide ALCTPSRGSLFTGR (peptide)
peptide: ALCTPSRGSLFTGR
notes: Used as substrate for both the Sc and Hs forms of the enzyme; also called Csub
B2: binds [2].

B3: Catalytic core of H. sapiens formylglycine-generating enzyme with TEV protease site and C-terminal His6 tag (Hs-cFGE) (protein)
chain: DRSLEANAPGPVPGERQLAHSKMVPIPAGVFTMGTDDPQIKQDGEAPARRVTIDAFYMDAYEVSNTEFEKFVNSTGYLTEVAAAPWWLPVKGANWRHPEGPDSTILHRPDHPVLHVSWNDAVAYCTWAGKRLPTEAEWEYSCRGGLHNRLFPWGNKLQPKGQHYANIWQGEFPVTNTGEDGFQGTAPVDAFPPNGYGLYNIVGNAWEWTSDWWTVHHSVEETLNPKGPPSGKDRVKKGGSYMCHRSYCYRYRCAARSQNTPDSSASNLGFRCAADRLPTMDKGENLYFQGHHHHHH
For B3, the KM [1] was “KM=0.34 µM”.
